Laboratory results published in article PMC10688784, “In vitro characterization of the phage lysis protein MS2-L” (Microbiome Research Reports, 2023).
Where two headings read alike, the source gives them in different places.

What was measured:
[1] = biological target: MS2-Lp35, MS2-L truncated of the first 34 amino acids, C-terminal StrepII-tag (MS2 phage); assay: native MS; LILBID-MS; derivatives CF expressed in standard A19 S30 lysate with 60 µM DMPG nanodiscs, purified; 50 mM ammonium acetate pH 7.4; laser 10-20 mJ
[2] = biological target: MS2-Lp35, MS2-L truncated of the first 34 amino acids, C-terminal StrepII-tag (MS2 phage); assay: native MS; LILBID-MS; derivatives CF expressed in standard A19 S30 lysate with 0.4% Brij78, purified; 50 mM ammonium acetate pH 7.4 with 0.02% Brij78; laser 10-20 mJ
[3] = biological target: MS2-Lp29, MS2-L truncated of the first 28 amino acids, C-terminal StrepII-tag (MS2 phage); assay: native MS; LILBID-MS; derivatives CF expressed in standard A19 S30 lysate with 60 µM DMPG nanodiscs, purified; 50 mM ammonium acetate pH 7.4; laser 10-20 mJ
[4] = biological target: MS2-Lp29, MS2-L truncated of the first 28 amino acids, C-terminal StrepII-tag (MS2 phage); assay: native MS; LILBID-MS; derivatives CF expressed in standard A19 S30 lysate with 0.4% Brij78, purified; 50 mM ammonium acetate pH 7.4 with 0.02% Brij78; laser 10-20 mJ
[5] = biological target: MS2-Lp26, MS2-L truncated of the first 25 amino acids, C-terminal StrepII-tag (MS2 phage); assay: native MS; LILBID-MS; derivatives CF expressed in standard A19 S30 lysate with 60 µM DMPG nanodiscs, purified; 50 mM ammonium acetate pH 7.4; laser 10-20 mJ
[6] = biological target: MS2-Lp26, MS2-L truncated of the first 25 amino acids, C-terminal StrepII-tag (MS2 phage); assay: native MS; LILBID-MS; derivatives CF expressed in standard A19 S30 lysate with 0.4% Brij78, purified; 50 mM ammonium acetate pH 7.4 with 0.02% Brij78; laser 10-20 mJ
[7] = biological target: MS2-Lp32, MS2-L truncated of the first 31 amino acids, C-terminal StrepII-tag (MS2 phage); assay: native MS; LILBID-MS; derivatives CF expressed in standard A19 S30 lysate with 60 µM DMPG nanodiscs, purified; 50 mM ammonium acetate pH 7.4; laser 10-20 mJ
[8] = biological target: MS2-Lp32, MS2-L truncated of the first 31 amino acids, C-terminal StrepII-tag (MS2 phage); assay: native MS; LILBID-MS; derivatives CF expressed in standard A19 S30 lysate with 0.4% Brij78, purified; 50 mM ammonium acetate pH 7.4 with 0.02% Brij78; laser 10-20 mJ
[9] = biological target: MS2-Lp23, MS2-L truncated of the first 22 amino acids, C-terminal StrepII-tag (MS2 phage); assay: native MS; LILBID-MS; derivatives CF expressed in standard A19 S30 lysate with 60 µM DMPG nanodiscs, purified; 50 mM ammonium acetate pH 7.4; laser 10-20 mJ
[10] = biological target: MS2-Lp23, MS2-L truncated of the first 22 amino acids, C-terminal StrepII-tag (MS2 phage); assay: native MS; LILBID-MS; derivatives CF expressed in standard A19 S30 lysate with 0.4% Brij78, purified; 50 mM ammonium acetate pH 7.4 with 0.02% Brij78; laser 10-20 mJ
[11] = biological target: T1, chaperone DnaJ with C-terminal His6-tag (UniProt P08622 1-376); assay: pull-down; details: one partner purified
T1 construct: Chaperone DnaJ; the dnaJ gene cloned into NdeI/XhoI of pET21a; source: E. coli T7 Express, purified (Ni-NTA); not shown: His6, C-terminal, kept
T1 sequence (looked up): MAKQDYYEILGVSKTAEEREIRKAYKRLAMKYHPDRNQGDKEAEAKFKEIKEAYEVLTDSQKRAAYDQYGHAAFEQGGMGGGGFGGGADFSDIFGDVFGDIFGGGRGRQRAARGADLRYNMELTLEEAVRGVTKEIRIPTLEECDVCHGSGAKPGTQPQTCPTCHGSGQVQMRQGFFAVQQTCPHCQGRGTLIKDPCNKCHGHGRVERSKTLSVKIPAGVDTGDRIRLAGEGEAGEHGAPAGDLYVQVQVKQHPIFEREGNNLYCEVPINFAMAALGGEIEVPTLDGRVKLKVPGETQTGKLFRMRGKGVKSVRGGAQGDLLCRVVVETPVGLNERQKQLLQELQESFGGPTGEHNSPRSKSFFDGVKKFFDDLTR

[12] = biological target: MS2-L, full-length phage lysis protein with C-terminal StrepII-tag (MS2 phage) (UniProt P03609); assay: native MS; LILBID-MS; derivatives CF expressed in standard A19 S30 lysate with 60 µM DMPG nanodiscs, purified; 50 mM ammonium acetate pH 7.4; laser 10-20 mJ
[13] = biological target: MS2-L, full-length phage lysis protein with C-terminal StrepII-tag (MS2 phage) (UniProt P03609); assay: as above; remark: listed apart in the source

## MS2-Lp35, MS2-L truncated of the first 34 amino acids, C-terminal StrepII-tag (domain or fragment)
[1]
  stoichiometry N: > 10 monomers
[2]
  stoichiometry N: < 10 monomers

## MS2-Lp29, MS2-L truncated of the first 28 amino acids, C-terminal StrepII-tag (domain or fragment)
[3]
  stoichiometry N: > 10 monomers
[4]
  stoichiometry N: < 4 monomers

## MS2-Lp26, MS2-L truncated of the first 25 amino acids, C-terminal StrepII-tag (domain or fragment)
[5]
  stoichiometry N: > 10 monomers
[6]
  stoichiometry N: < 4 monomers

## MS2-Lp32, MS2-L truncated of the first 31 amino acids, C-terminal StrepII-tag (domain or fragment)
[7]
  stoichiometry N: > 10 monomers
[8]
  stoichiometry N: < 4 monomers

## MS2-Lp23, MS2-L truncated of the first 22 amino acids, C-terminal StrepII-tag (domain or fragment)
[9]
  stoichiometry N: > 10 monomers
[10]
  stoichiometry N: < 4 monomers

B1: MS2-L, full-length phage lysis protein with C-terminal StrepII-tag (natural protein, MS2 phage, UniProt P03609 1-75, looked up)
chain: MKTRFPQQSQQTPASTNRRRPFKHEDYPCRRQQRSSTLYVLIFLAIFLSKFTNQLLLSLLEAVIRTVTTLQQLLT
notes: Lysis protein L of bacteriophage MS2, 75 amino acids; codon exchange GAA (Glu) to AAA (Lys) at the first position after the start methionine; In nanodisc samples the peptide sits in MSP1E3D1/DMPG nanodiscs; also called full-length MS2-L; full-length toxin MS2-L; source: also unpurified in the reaction mix; not shown: StrepII, C-terminal, kept
[11]
  binding result: binds
[12]
  stoichiometry N: > 10 monomers
[13]
  stoichiometry N: < 12 monomers
